Data as given in the supplement of paper PMC9732359.
± gives the uncertainty stated by the source.

Assay: protein stability index of a GFP-peptide fusion (yeast GPS) (PSI 1-4); higher = more stable; sorted into four equal gates, so the index is relative within each strain
How it was run: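 The protein stability index of a peptide was calculated by multiplying its read frequency in each gate by that gate's number and adding the products. The peptides were tiled 17-residue stretches of yeast proteins, fused downstream of GFP on a Cherry-expressing plasmid and carried in yeast as a pooled library. Mid-log cultures in leucine-free medium were sorted into four equal gates by GFP/Cherry ratio, and each gate's plasmids were PCR-amplified and Illumina-sequenced.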

| Sequence | protein stability index (doa10∆) | protein stability index (pdr5∆) | protein stability index (san1∆) | protein stability index (ubr1∆) |
| --- | --- | --- | --- | --- |
| LTMHKIIQLILWSIHPS [SRB8] | 1.62 ± 0.047 | 1.53 ± 0.047 | 1.61 ± 0.088 | 1.53 ± 0.044 |
| LTRNAPLDSKDENFASV [SNF2] | 3.04 ± 0.08 | 3.2 ± 0.079 | 3.07 ± 0.067 | 3.1 ± 0.074 |
| LTVYLEPGHAADQEQAK [RPO21] | 2.96 ± 0.14 | 2.68 ± 0.1 | 3.05 ± 0.081 | 3.13 ± 0.083 |
| LVALLSRDLWCFSINDD [SSN2] | 2.1 ± 0.076 | 1.71 ± 0.08 | 2.5 ± 0.098 | 2.69 ± 0.098 |
| LVEEFMLLANISVARKI [DIS3] | 1.3 ± 0.062 | 1.84 ± 0.092 | 1.77 ± 0.16 | 2.18 ± 0.055 |
| LVEYGFDPSRIKDLKQR [SMC2] | 2.04 ± 0.049 | 2.57 ± 0.074 | 2.16 ± 0.082 | 2.51 ± 0.064 |
| LVFQLAKNFSAQKRVVS [SRB8] | 1.69 ± 0.053 | 2.06 ± 0.072 | 1.86 ± 0.076 | 1.94 ± 0.058 |
| LVGRKPAEHPFISAARY [RPC37] | 2.23 ± 0.14 | 1.86 ± 0.074 | 2.08 ± 0.15 | 2.54 ± 0.084 |
| LVHSEYLINGKRFKRKD [SRP68] | 2.68 ± 0.16 | 2.79 ± 0.065 | 2.84 ± 0.076 | 2.67 ± 0.038 |
| LVQEQVREFQRRLAFLG [BRR2] | 2.07 ± 0.12 | 1.16 ± 0.14 | 1.04 ± 0.22 | 1.17 ± 0.087 |
| LVQLSTMETKTLPEKKQ [SIR4] | 2.88 ± 0.063 | 2.9 ± 0.069 | 2.72 ± 0.052 | 2.99 ± 0.059 |
| LVRNGPNEHPGAKYVIR [RPO21] | 2.91 ± 0.095 | 2.95 ± 0.1 | 2.76 ± 0.14 | 2.8 ± 0.084 |
| LWPVAIGLIALSATGTR [YJR042W/NUP85] | 1.75 ± 0.25 |  | 1.36 ± 0.23 |  |
| LYAIKKVTLNKETQQYE [BRR2] | 3.03 ± 0.15 | 3.21 ± 0.13 | 2.99 ± 0.094 | 3.36 ± 0.081 |
| LYEIILAANYLNIKPLL [SKP1] | 1.51 ± 0.046 | 1.33 ± 0.045 | 1.28 ± 0.11 | 1.46 ± 0.045 |
| LYFPDDYPFTQLGYIEN [POP1] | 2.71 ± 0.12 | 3.18 ± 0.074 | 3.1 ± 0.071 | 3.16 ± 0.068 |
| LYGAPGTGKTLLAKAVA [RPT2] | 1.77 ± 0.11 | 1.48 ± 0.12 |  | 1.58 ± 0.1 |
| LYGVTICYNKKTEYVLN [REC8] | 1.3 ± 0.058 | 1.3 ± 0.14 | 1.14 ± 0.13 | 1.34 ± 0.062 |
| LYHLVIMKFQSLSDNDL [ECM29] |  | 1.65 ± 0.25 |  | 3.28 ± 0.25 |
| LYKEFFNEKFPSLIQEE [NUT1] | 3 ± 0.13 | 3.19 ± 0.13 | 3.06 ± 0.059 | 3.2 ± 0.12 |
| LYLQDSNDKFVHVQLLI [SRB8] | 1.96 ± 0.055 | 2.06 ± 0.057 | 1.93 ± 0.066 | 2.17 ± 0.042 |
| LYSIREDYELSPQAVSS [PRE1] | 2.2 ± 0.13 | 2.83 ± 0.097 | 2.63 ± 0.062 | 2.38 ± 0.069 |
| MAESTTLETIEIHPITF [RRP43] | 3.04 ± 0.073 | 2.58 ± 0.047 | 3.06 ± 0.044 | 2.68 ± 0.04 |
| MAFNLLGLLTPEVVELC [FAS2] | 1.8 ± 0.085 | 1.56 ± 0.12 | 1.22 ± 0.22 | 2.47 ± 0.12 |
| MAGLKDVVTREYTINLH [RPL31A] | 3.02 ± 0.15 | 3.06 ± 0.14 | 3.01 ± 0.08 | 3.29 ± 0.16 |
| MAHENVWFSHPRRYGKG [RPS29A] | 3.39 ± 0.24 | 2.95 ± 0.17 | 3.18 ± 0.14 | 3.18 ± 0.23 |

| Sequence | protein stability index (doa10∆) | protein stability index (pdr5∆) | protein stability index (san1∆) | protein stability index (ubr1∆) |
| --- | --- | --- | --- | --- |
| MAKLNECPLDPGGYFIV [RET1] | 2.87 ± 0.11 | 3.28 ± 0.091 | 2.83 ± 0.086 | 3.23 ± 0.099 |
| MANTGCLSPGAFLSKVP [SRP14] | 2.56 ± 0.076 | 2.3 ± 0.091 | 2.74 ± 0.14 | 2.52 ± 0.061 |
| MASTELSLKRTLTDILE [RPN4] | 1.26 ± 0.18 | 2.65 ± 0.17 | 2.72 ± 0.16 | 2.02 ± 0.29 |
| MDALYEKIWFAISKENL [SIR3] | 2.21 ± 0.06 | 1.95 ± 0.052 | 1.51 ± 0.088 | 1.27 ± 0.047 |
| MDCTKEEEATMTTSAVS [YIL149C/MLP2] | 3.35 ± 0.08 | 3.24 ± 0.065 | 3.28 ± 0.06 | 3.12 ± 0.059 |
| MDFANLWVFQAFTCFCI [SRB8] | 1.55 ± 0.054 | 1.2 ± 0.043 | 1.16 ± 0.08 | 1.21 ± 0.042 |
| MDPQTLITKANKVSYYG [RTT102] | 1.85 ± 0.047 | 1.73 ± 0.042 | 1.71 ± 0.12 | 1.87 ± 0.052 |
| MDTIQDKLINDVTAIQT [ECM29] | 3.22 ± 0.083 | 3.23 ± 0.1 | 3.2 ± 0.085 | 3.34 ± 0.055 |
| MEFSNLYKEFFNEKFPS [NUT1] |  | 3.17 ± 0.15 | 2.98 ± 0.069 | 3.04 ± 0.1 |
| MEGNAQPVNFNRSWDHA [RPO31] | 2.22 ± 0.11 | 2.31 ± 0.071 | 2.39 ± 0.13 | 2.35 ± 0.067 |
| MEGQKLDDPVLNAIVSK [YJR042W/NUP85] | 3.27 ± 0.19 | 3.2 ± 0.2 |  | 3.21 ± 0.17 |
| MELSPTYQTERFTKFSD [YDL116W/NUP84] | 3.09 ± 0.13 | 2.74 ± 0.17 |  | 2.79 ± 0.22 |
| MENEFFKVQELLHSKPS [NAS6] | 2.2 ± 0.14 | 2.02 ± 0.082 | 2.68 ± 0.14 | 2.3 ± 0.085 |
| MERLDGDYNNTVYSSEQ [SMC3] | 2.94 ± 0.11 | 3.18 ± 0.12 | 3.25 ± 0.071 | 3.16 ± 0.042 |
| MFGAKPAGTSLFGNNAG [YGL172W/NUP49] | 3.16 ± 0.076 | 3.08 ± 0.067 | 3.01 ± 0.072 | 3.06 ± 0.053 |
| MGDELTRSHFNALYDTL [RPN6] | 2.3 ± 0.048 | 2.45 ± 0.067 | 2.67 ± 0.051 | 2.74 ± 0.044 |
| MGSLINGITLALIDAGI [SKI6] | 1.89 ± 0.1 | 2.1 ± 0.055 | 2.05 ± 0.075 | 2 ± 0.051 |
| MGYSGWCTTCKSAENII [RET1] | 3.21 ± 0.15 | 2.99 ± 0.14 | 3.22 ± 0.079 | 3.19 ± 0.094 |
| MIDAVFEQDSHLRYQPD [SNF6] | 3.09 ± 0.076 | 3.19 ± 0.065 | 3.15 ± 0.041 | 3.19 ± 0.054 |
| MIFWNDICQIDTNAPVA [SRB8] | 2.4 ± 0.063 | 1.8 ± 0.052 | 2.12 ± 0.093 | 2.02 ± 0.051 |
| MIQPPQQGQNMSEQQWR [ROX3] | 2.15 ± 0.082 | 2.38 ± 0.06 | 2.39 ± 0.093 | 2.19 ± 0.033 |
| MIQTPRELLNPRYTYHT [YML031W/NDC1] | 2.95 ± 0.078 | 2.83 ± 0.081 | 2.98 ± 0.11 | 3.35 ± 0.14 |
| MIRLLGSESDDSEGSIK [ECM29] | 2.67 ± 0.21 |  | 2.54 ± 0.26 | 3.4 ± 0.25 |
| MISEVPSVAAEYVYFFN [RPC40] | 1.53 ± 0.11 | 1.13 ± 0.091 | 1.23 ± 0.11 | 1.07 ± 0.079 |
| MKANPALYVLRERIRKG [PRP8] | 2.47 ± 0.23 | 2.87 ± 0.11 | 2.66 ± 0.12 | 2.41 ± 0.29 |
| MKATSNTLEEFEHGRTP [FAS2] | 2.8 ± 0.08 | 2.56 ± 0.16 | 1.38 ± 0.15 | 3.66 ± 0.12 |
